Source: patent publication US20240158515A1 (Regeneron, published 2024)

B1: H4H30117P2 (antibody, human IgG4 S228P, kappa, V domains shown)
VH: QVQLVQSGAEVKKPGSSVKVSCKASGDTFSNYVIGWVRQAPGQGLEWMGGIIPIFGTTNYAQQFQGRVTITTDESTSTAYMELSSLRSEDTAVYYCARDGNYGDYFDYWGQGTLVTVSS
VL: not shown
B2: H4H30045P (antibody, human IgG4 S228P, kappa, V domains shown)
VH: QVQLVQSGAEVKKPGASVKVSCKTSGYRFVNYGFSWVRQAPGQGLEWMGWISPYNGNTNYIQNLQDRITMTTDTSTNTAYMELTNLRSDDTAVYYCATLTGVHFDYWGQGTLVTVSS
VL: AIQMTQSPSSLSASVGDRVTITCRASQGIRNDLGWYQQKPGKAPNLLIFETSRLQSGVPSRFSGSGSGTDFTLTINSLQPEDFATYYCLQDYNYPWTFGQGTKVEIKR
notes: HCVR 179, LCVR 187
B3: H4H30061P (antibody, human IgG4 S228P, kappa, V domains shown)
VH: EVQLVESGGGLAQPGGSLKLSCEASGFTFSDSAMHWVRQASGKGLEWVGRIRSKANSYATGYAASVKGRFTISRDDSKNMAFLEMNSLKTEDTAVYYCLRQTYGDPWGQGTLVTVSS
VL: DVVMTQSPLSLSVTLGQPASISCRSSLSLVYSDGNNYLNWFQQRPGQSPRRLLYKVFNRDSGVPDRFSGSGSGTDFTLKISRVEAEDVGVYYCMQGTHWPWTFGQGTKVEIKR

Assays:
[1] = target: T1, murine FGFR3b expressed with a C-terminal myc-myc-hexahistidine tag (mFGFR3b.mmH) (murine); experiment: SPR Biacore, mAb captured on anti-hFc, 25C
T1 construct: also called REGN3215; monomeric murine FGFR3b
T1 chain: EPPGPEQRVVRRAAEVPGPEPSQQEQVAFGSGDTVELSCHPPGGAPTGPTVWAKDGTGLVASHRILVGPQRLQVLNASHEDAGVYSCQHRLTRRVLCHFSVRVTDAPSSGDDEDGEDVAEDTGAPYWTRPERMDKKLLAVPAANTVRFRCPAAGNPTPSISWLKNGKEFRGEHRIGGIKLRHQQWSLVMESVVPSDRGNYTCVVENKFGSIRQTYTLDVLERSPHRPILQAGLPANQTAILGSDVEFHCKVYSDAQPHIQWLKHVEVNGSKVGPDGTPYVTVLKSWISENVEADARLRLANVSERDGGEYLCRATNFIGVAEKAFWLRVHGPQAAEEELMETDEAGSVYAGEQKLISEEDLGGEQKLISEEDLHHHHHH
Method: (§1) The CM5 Biacore sensor surface was derivatized by amine coupling with a monoclonal mouse anti-human Fc monoclonal antibody (REGN2567). […] Antibody-reagent association was monitored for 5 minutes while dissociation in HBS-EP running buffer was monitored for 10 minutes. At the end of each cycle, the anti-FGFR3 antibody capture surface was regenerated using a 10 sec injection of 20 mM phosphoric acid. All binding kinetics experiments were performed at 25° C.
(§2) The specific SPR-Biacore sensorgrams were obtained by a double referencing procedure. The double referencing was performed by first subtracting the signal of each injection over a reference surface (anti-hFc) from the signal over the experimental surface (anti-hFc-captured anti-FGFR3 antibodies) thereby removing contributions from refractive index changes. In addition, running buffer injections were performed to allow subtraction of the signal changes resulting from the dissociation of captured antibodies from the coupled anti-hFc surface. Kinetic association (kₐ) and dissociation (kd) rate constants were determined by fitting the real-time sensorgrams to a 1:1 binding model using Scrubber v2.0c curve fitting software.

[2] = target: T2, human FGFR3b expressed with a C-terminal myc-myc-hexahistidine tag (hFGFR3b.mmH) (human); experiment: SPR Biacore, mAb captured on anti-hFc, 25C
T2 construct: also called REGN3152; monomeric human FGFR3b
T2 chain: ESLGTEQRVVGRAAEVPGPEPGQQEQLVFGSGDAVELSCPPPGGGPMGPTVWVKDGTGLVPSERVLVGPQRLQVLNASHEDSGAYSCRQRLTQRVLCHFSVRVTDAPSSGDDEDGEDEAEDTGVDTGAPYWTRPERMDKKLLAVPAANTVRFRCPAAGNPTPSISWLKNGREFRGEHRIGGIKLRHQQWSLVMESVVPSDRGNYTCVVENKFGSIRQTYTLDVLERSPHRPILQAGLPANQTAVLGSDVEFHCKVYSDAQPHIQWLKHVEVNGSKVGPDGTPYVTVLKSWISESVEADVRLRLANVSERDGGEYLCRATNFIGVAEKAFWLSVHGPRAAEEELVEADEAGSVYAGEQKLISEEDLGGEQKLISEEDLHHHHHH
Method: as §1, §2

[3] = target: T3, human FGFR3c expressed with a C-terminal myc-myc-hexahistidine tag (hFGFR3c.mmH) (human, UniProt P22607 23-375); experiment: SPR Biacore, mAb captured on anti-hFc, 25C
T3 construct: also called REGN3155; monomeric human FGFR3c
Method: as §1, §2

[4] = target: T4, human FGFR3b expressed with a C-terminal murine Fc tag (hFGFR3b.mFc) (human); experiment: SPR Biacore, mAb captured on anti-hFc, 25C
T4 construct: called dimeric; also called REGN3153; dimeric human FGFR3b
T4 chain: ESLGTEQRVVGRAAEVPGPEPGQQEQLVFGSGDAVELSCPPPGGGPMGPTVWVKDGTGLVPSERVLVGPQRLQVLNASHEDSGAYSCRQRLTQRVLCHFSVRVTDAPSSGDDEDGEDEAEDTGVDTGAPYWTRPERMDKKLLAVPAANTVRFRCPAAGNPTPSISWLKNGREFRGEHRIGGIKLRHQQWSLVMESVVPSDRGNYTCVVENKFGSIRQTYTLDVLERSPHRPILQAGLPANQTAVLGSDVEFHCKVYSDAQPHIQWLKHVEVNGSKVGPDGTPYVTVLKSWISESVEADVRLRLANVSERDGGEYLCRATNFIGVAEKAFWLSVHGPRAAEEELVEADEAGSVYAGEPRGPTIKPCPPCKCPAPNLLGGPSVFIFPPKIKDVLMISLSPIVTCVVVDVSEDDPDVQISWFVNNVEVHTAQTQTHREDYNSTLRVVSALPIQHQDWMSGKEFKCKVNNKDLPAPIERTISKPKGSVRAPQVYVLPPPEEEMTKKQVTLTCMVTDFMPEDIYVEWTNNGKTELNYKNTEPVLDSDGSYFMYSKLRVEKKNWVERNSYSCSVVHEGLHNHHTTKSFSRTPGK
Method: as §1, §2

[5] = target: T5, cynomolgus FGFR3b expressed with a C-terminal myc-myc-hexahistidine tag (mfFGFR3b.mmH) (cynomolgus); experiment: SPR Biacore, mAb captured on anti-hFc, 25C
T5 construct: also called REGN3521; mf FGFR3b ecto (R357G)(E23-G377;R357G).mmH
T5 chain: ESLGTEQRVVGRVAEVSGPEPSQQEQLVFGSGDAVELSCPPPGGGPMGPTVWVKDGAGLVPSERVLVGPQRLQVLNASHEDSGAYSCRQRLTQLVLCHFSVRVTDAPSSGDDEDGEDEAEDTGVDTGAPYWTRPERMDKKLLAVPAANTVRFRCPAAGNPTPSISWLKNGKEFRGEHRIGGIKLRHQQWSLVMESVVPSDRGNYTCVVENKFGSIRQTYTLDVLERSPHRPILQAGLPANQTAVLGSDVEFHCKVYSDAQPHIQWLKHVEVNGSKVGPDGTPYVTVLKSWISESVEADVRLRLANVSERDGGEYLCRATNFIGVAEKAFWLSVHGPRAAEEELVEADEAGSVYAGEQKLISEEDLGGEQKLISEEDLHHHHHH
Method: as §1, §2

[6] = target: T1, murine FGFR3b expressed with a …; experiment: SPR Biacore, mAb captured on anti-hFc, 25C; row marked NB
Method: as §1, §2

Binder | binding result [1] | 90 nM hFGFR3b.mmH Bind (RU) [2] | koff [2] | kon [2] | t½ [2] | 90 nM hFGFR3c.mmH Bind (RU) [3] | koff [3] | kon [3] | t½ [3] | 30 nM hFGFR3b.mFc Bind (RU) [4] | koff [4] | kon [4] | t½ [4] | 90 nM mfFGFR3b.mmH Bind (RU) [5] | Kd [5] | koff [5] | kon [5] | t½ [5] | 90 nM mFGFR3b.mmH Bind (RU) [6] | Kd [2] | further results
B1 | no binding (tested: 90 nM) | 178 RU | 0.0063 s⁻¹ | 656000 M⁻¹ s⁻¹ | 1.8 min | 166 RU | 0.00732 s⁻¹ | 595000 M⁻¹ s⁻¹ | 1.6 min | 337 RU | 0.000133 s⁻¹ | 787000 M⁻¹ s⁻¹ | 87 min | 148 RU | 15.8 nM | 0.0087 s⁻¹ | 550000 M⁻¹ s⁻¹ | 1.3 min | 0.9 RU |  | 
B2 | no binding (tested: 90 nM) | 124 RU | 0.00624 s⁻¹ | 385000 M⁻¹ s⁻¹ | 1.9 min | 77.1 RU | 0.00746 s⁻¹ | 381000 M⁻¹ s⁻¹ | 1.5 min | 266 RU | 0.000161 s⁻¹ | 277000 M⁻¹ s⁻¹ | 71.8 min | 71.9 RU | 20.6 nM | 0.00882 s⁻¹ | 429000 M⁻¹ s⁻¹ | 1.3 min | 2.4 RU | 16.2 nM | Kd [3]: 19.6 nM; Kd [4]: 0.581 nM
B3 |  | 249 RU | 8.74e-05 s⁻¹ | 173000 M⁻¹ s⁻¹ | 132 min | 204 RU | 7.92e-05 s⁻¹ | 151000 M⁻¹ s⁻¹ | 146 min | 260 RU | ≤ 1e-05 s⁻¹ | 231000 M⁻¹ s⁻¹ | ≥ 1160 min | 197 RU | 0.65 nM | 9.83e-05 s⁻¹ | 151000 M⁻¹ s⁻¹ | 118 min | -8.5 RU | 0.506 nM | Kd [3]: 0.526 nM; Kd [4]: ≤ 0.0433 nM
